Measurements published in patent US20240261423A1.

Molecular target: Insulin
Test: low stringency direct binding ELISA on coated insulin, antibody dilutions from 10 µg/mL

Chain of Insulin (P01308 25-54, chain 1 of 2): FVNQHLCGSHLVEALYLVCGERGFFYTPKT
Chain of Insulin (P01308 90-110, chain 2 of 2): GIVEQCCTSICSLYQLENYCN

Polyreactivity Score | Substance
12.2 | Positive Control (polyreactivity assay) (antibody)
5.03 | Negative Control (polyreactivity assay) (antibody)
